# In patent publication US7026443:
# Where two headings read alike, the source gives them in different places.
# Experiments:
# HLA-A*2402 (human) = assay: competition with 125I-labelled standard peptide for purified HLA-A*2402, gel filtration
# HLA-A*0201 (human) = assay: competition with 125I-labelled standard peptide on purified HLA, gel filtration
# HLA-A*0301 (human) = assay: competitive inhibition of 125I-labelled standard peptide binding to purified HLA-A*0301, gel filtration
# HLA-A*1101 (human) = assay: competition with 125I-labelled standard peptide on purified HLA-A*1101, gel filtration
# [1] = remark: other sources report otherwise
binder,measurement,setting,value
EYRHYCYSL (modifications not checked) [HPV16 E6 82 …],binding affinity ratio (IC50 of standard peptide / IC50 of test peptide),HLA-A*2402 (human),0.0051
same,relative binding ratio (IC50 of standard peptide / IC50 of test peptide) (ratio to standard peptide),HLA-A*2402 (human),0.0051
HYCYSLYGTTL (modifications not checked) [HPV16 E6 85 …],binding affinity ratio (IC50 of standard peptide / IC50 of test peptide),HLA-A*2402 (human),0.065
same,relative binding ratio (IC50 of standard peptide / IC50 of test peptide) (ratio to standard peptide),HLA-A*2402 (human),0.065
STLRLCVQST (modifications not checked) [HPV16 E7 63 …],binding affinity ratio (IC50 of standard peptide / IC50 of test peptide),HLA-A*0201 (human),0.0012
TLEDLLMGT (modifications not checked),binding affinity ratio (IC50 of standard peptide / IC50 of test peptide),HLA-A*0201 (human); [1],0.0002
TLEDLLMGTL (modifications not checked),binding affinity ratio (IC50 of standard peptide / IC50 of test peptide),HLA-A*0201 (human),0.0002
TLRLCVQST (modifications not checked),binding affinity ratio (IC50 of standard peptide / IC50 of test peptide),HLA-A*0201 (human),0.0061
TLRLCVQSTHV (modifications not checked),binding affinity ratio (IC50 of standard peptide / IC50 of test peptide),HLA-A*0201 (human),0.0006
VTFCCKCDST (modifications not checked) [HPV16 E7 55 …],binding affinity ratio (IC50 of standard peptide / IC50 of test peptide),HLA-A*0201 (human),0.0001
HYSDSVYGDTL (modifications not checked) [HPV18 E6 80-90 peptide …],relative binding ratio (IC50 of standard peptide / IC50 of test peptide) (ratio to standard peptide),HLA-A*2402 (human),0.0069
KLTNTGLYNL (modifications not checked) [HPV18 E6 92-101 peptide …],relative binding ratio (IC50 of standard peptide / IC50 of test peptide) (ratio to standard peptide),HLA-A*2402 (human),0.0001
HGDTPTLHEY (modifications not checked) [HPV16 E7 2 …],relative binding ratio (IC50 of standard peptide / IC50 of test peptide) (ratio to standard peptide),HLA-A*0301 (human); [1],0.0001
IVCPICSQK (modifications not checked) [HPV16 E7 89 …],relative binding ratio (IC50 of standard peptide / IC50 of test peptide) (ratio to standard peptide),HLA-A*0301 (human); [1],0.0077
QAEPDRAHY (modifications not checked) [HPV16 E7 44 …],relative binding ratio (IC50 of standard peptide / IC50 of test peptide) (ratio to standard peptide),HLA-A*0301 (human),0.0002
FTFPNPFPF (modifications not checked) [HPV31 E1 566 … (A03 motif peptide)],relative binding ratio (IC50 of standard peptide / IC50 of test peptide) (ratio to standard peptide),HLA-A*0301 (human),0.0008
"AMFQDPQER (modifications not checked) [… (HPV16 E6, position 7, 9 amino acids)]",binding affinity ratio (IC50 of standard peptide / IC50 of test peptide) (ratio to standard peptide),HLA-A*1101 (human); [1],0.032
"AVCDKCLK (modifications not checked) [AVCDKCLK (HPV16 E6, position 68, 8 amino acids)]",binding affinity ratio (IC50 of standard peptide / IC50 of test peptide) (ratio to standard peptide),HLA-A*1101 (human),0.011
"AVCDKCLKFY (modifications not checked) [… (HPV16 E6, position 68, 10 amino acids)]",binding affinity ratio (IC50 of standard peptide / IC50 of test peptide) (ratio to standard peptide),HLA-A*1101 (human),0.019
"CCRSSRTRR (modifications not checked) [… (HPV16 E6, position 146, 9 amino acids)]",binding affinity ratio (IC50 of standard peptide / IC50 of test peptide) (ratio to standard peptide),HLA-A*1101 (human),0.0001
"CMSCCRSSR (modifications not checked) [… (HPV16 E6, position 143, 9 amino acids)]",binding affinity ratio (IC50 of standard peptide / IC50 of test peptide) (ratio to standard peptide),HLA-A*1101 (human),0.0001
"GNPYAVCDK (modifications not checked) [… (HPV16 E6, position 64, 9 amino acids)]",binding affinity ratio (IC50 of standard peptide / IC50 of test peptide) (ratio to standard peptide),HLA-A*1101 (human),0.0001
"HLDKKQRFH (modifications not checked) [… (HPV16 E6, position 125, 9 amino acids)]",binding affinity ratio (IC50 of standard peptide / IC50 of test peptide) (ratio to standard peptide),HLA-A*1101 (human); [1],0.0001
"IVYRDGNPY (modifications not checked) [… (HPV16 E6, position 59, 9 amino acids)]",binding affinity ratio (IC50 of standard peptide / IC50 of test peptide) (ratio to standard peptide),HLA-A*1101 (human); [1],0.15
"LCPEEKQRH (modifications not checked) [… (HPV16 E6, position 117, 9 amino acids)]",binding affinity ratio (IC50 of standard peptide / IC50 of test peptide) (ratio to standard peptide),HLA-A*1101 (human),0.0001
"NIRGRWTGR (modifications not checked) [… (HPV16 E6, position 134, 9 amino acids)]",binding affinity ratio (IC50 of standard peptide / IC50 of test peptide) (ratio to standard peptide),HLA-A*1101 (human),0.0005
